For one experiment, the target named is T1, CBL TKBD (Homo sapiens, UniProt P22681).
T1 construct: with CBL (47-357) cloned in frame into MCS2 of the same pETDuet-1 vector; made in house
T1 sequence (P22681 47-357): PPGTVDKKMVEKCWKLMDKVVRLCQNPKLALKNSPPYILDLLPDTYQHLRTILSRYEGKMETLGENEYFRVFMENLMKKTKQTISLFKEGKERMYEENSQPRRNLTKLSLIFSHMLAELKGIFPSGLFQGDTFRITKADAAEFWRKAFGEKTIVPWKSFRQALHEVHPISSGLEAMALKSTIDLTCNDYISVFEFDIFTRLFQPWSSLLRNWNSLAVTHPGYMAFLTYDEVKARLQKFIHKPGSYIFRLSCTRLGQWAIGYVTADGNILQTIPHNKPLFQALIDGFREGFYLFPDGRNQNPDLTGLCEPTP
Kind of experiment: Co-purification of CBL TKBD with Trx-His-SLAP2/SLAP (Duet co-expression, Ni-NTA, SDS-PAGE). Format: binding. An excerpt: To validate the CBL/SLAP2 binding interface, a series of mutants in a Duet co-expression vector system was generated for co-purification trials. The SLAP2 sequence was preceded by thioredoxin (Trx) and His-tag fusion proteins to allow co-purification of CBL TKBD that was bound to Trx-His-SLAP2 during the initial affinity chromatography purification step. Surface residues deemed to be important to the CBL/SLAP2 interface, but not CBL function or folding, were mutated to disrupt CBL/SLAP2 binding (FIG. 5C and FIG. 6). In our structure, SLAP2 Gly240 locates close to CBL Met269 and Ala270, such that mutation to a bulky Arg residue (G240R) could cause sterical constraints. Similarly, SLAP2 Leu241 is situated in a hydrophobic cleft composed of CBL Ala223, Trp258, and Val263; mutation to Arg (L241R) was predicted to disturb this binding pocket. Mutation of CBL Ala223 to Arg (A223R) would likewise disrupt this pocket, with CBL/SLAP2 double mutant A223R/L241R predicted to drastically disturb binding through sterical constraints and charge repulsion. (For clarity, CBL mutations herein are indicated in italics, SLAP2 in regular font.) Similarly, single or double mutation of CBL Ser226 or SLAP2 Ser244, whose side chain hydroxyl groups are in close proximity to one another, to charged Glu residues (S226E and S244E) was anticipated to interfere with CBL/SLAP2 binding. Finally, given that SLAP2 binds CBL as an α-helix, mutation of Leu245, located in the center of this α-helix, to proline (L245P) was expected to interrupt the helical structure and thus prevent SLAP2 binding. […] However, double mutation of the CBL/SLAP2 interface (A223R/L241R and S226E/S244E; FIG. 5D, lower panel) was not tolerated, even at low salt concentration.
For co-purification of CBL and SLAP2/SLAP, Duet-His-hSLAP2-CBL 29-261 Δ198-229 and 29-254 Δ198-229, Duet-His-Δlinker-hSLAP2-CBL WT and point mutants, and Duet-His-mSLAP-CBL WT and point mutants were overexpressed in E. coli BL-21 as above or TKB1 competent cells (Stratagene) as per manufacturer’s instructions, and cells harvested as above (except 100 mL of LB, overnight at 16-18° C., and 0.35-0.5 mM IPTG induction). Cell pellets were resuspended in either high or low salt (as for high salt except 25 mM HEPEs pH 7.5, 150 mM NaCl) lysis buffer and purified as above on Ni-NTA agarose (Qiagen) with wash buffer (25 mM HEPEs pH 7.5, 150 mM NaCl, 2% glycerol, 20 mM imidazole, 10 mM βME). Bead slurry was mixed with SDS 2X loading buffer (125 mM Tris pH 6.8, 4% SDS, 20% glycerol, 0.715 M βME, bromophenol blue), boiled, and analyzed by 10 or 12.5% SDS-PAGE, stained with Coomassie blue.

In experiment [1] the target is T2, CBL TKBD-LHR-RING (2-436), unphosphorylated (Homo sapiens, UniProt P22681).
T2 construct: GST (N, cleaved yes); made in house; host or cells: E. coli BL-21
T2 sequence (P22681 2-436): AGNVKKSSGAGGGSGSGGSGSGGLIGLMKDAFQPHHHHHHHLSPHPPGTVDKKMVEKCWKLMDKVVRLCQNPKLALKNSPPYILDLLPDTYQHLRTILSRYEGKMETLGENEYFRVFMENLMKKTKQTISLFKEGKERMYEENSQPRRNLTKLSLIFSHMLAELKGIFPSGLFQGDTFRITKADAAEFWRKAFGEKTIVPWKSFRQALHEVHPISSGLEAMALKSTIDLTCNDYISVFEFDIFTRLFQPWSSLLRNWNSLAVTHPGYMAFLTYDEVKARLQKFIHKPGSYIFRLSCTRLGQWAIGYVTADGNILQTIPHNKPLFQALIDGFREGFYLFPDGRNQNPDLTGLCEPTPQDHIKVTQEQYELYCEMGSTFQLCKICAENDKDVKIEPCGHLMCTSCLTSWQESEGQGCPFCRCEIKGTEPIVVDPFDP
Briefly: In vitro ubiquitination assay, anti-ubiquitin immunoblot. Type of experiment: biochemical. Conditions: added to unphosphorylated CBL; 20 pmol CBL, 60 pmol SLAP2/pSLAP2. An excerpt:
Given that binding of SLAP2 and the LHR-RING would be mutually exclusive (FIG. 8C), we reasoned that binding of SLAP2 to CBL could displace the LHR-RING, thereby promoting the catalytically competent conformation. To test this hypothesis, an in vitro ubiquitination assay in which E3 ligase activity is detected by a smear at high molecular weight on an anti-ubiquitin (Ub) immunoblot was employed. […] To further compare and quantify CBL ubiquitin ligase activity, a chemiluminescence based assay which measures the total amount of polyubiquitylated products formed in an in vitro reaction was used. In this assay, production of polyubiquitylated proteins increased upon addition of SLAP2 or pSLAP2 to CBL, compared to CBL alone (FIG. 9C and FIG. 10A).
In vitro ubiquitination reactions were prepared with 20 pmol of CBL or pCBL and 60 pmol of hSLAP2 or phosphorylated hSLAP2 (pSLAP2) for both WT and mutants. Reagents were thawed and reactions prepared on ice. CBL and SLAP2 were mixed in PBS (with 5 mM βME, 5 mM caproic acid, 0.5 mM PMSF, and 0.5 mM Na3VO4) at rt for 5-10 min before addition of master mix (42 pmol E1 (UBE1, Boston Biochem or Ubiquitin-Proteasome Biotechnologies), 0.1 µmol E2 (UbcH5b/UBE2D2, Boston Biochem #E2-622), […], and 11.6 µmol ubiquitin (Boston Biochem #U-100H) in reaction buffer (0.2 M Tris pH 7.5, 10 mM MgCl2, 2 mM DTT). Reactions were incubated at 30° C. shaking at 500-700 rpm for 60-110 minutes and terminated by addition of SDS 2X loading buffer and boiling for 5-10 minutes. Equal volumes of each reaction were loaded on 12.5% SDS-PAGE gel, transferred to PVDF membrane, and immunoblotted for ubiquitin as per standard protocols (anti-ubiquitin antibody P4G7, BioLegend #838701, 1:1000; anti-mouse IgG HRP-linked antibody, Cell Signaling Technology #7076, 1:10000; Western Lightning Plus ECL, Perkin Elmer).
A general note: A western blot detects proteins with antibodies after separation by electrophoresis.

Entries after “also recorded” stand apart in the source; their conditions may differ.

B1: pSLAP2: tyrosine phosphorylated SLAP2 expressed in TKB1 cells (protein, UniProt Q9H6Q3 2-261, looked up)
Src-like-adapter 2: GSLPSRRKSLPSPSLSSSVQGQGPVTMEAERSKATAVALGSFPAGGPAELSLRLGEPLTIVSEDGDWWTVLSEVSGREYNIPSVHVAKVSHGWLYEGLSREKAEELLLLPGNPGGAFLIRESQTRRGSYSLSVRLSRPASWDRIRHYRIHCLDNGWLYISPRLTFPSLQALVDHYSELADDICCLLKEPCVLQRAGPLPGKDIPLPVTVQRTPLNWKELDSSLLFSEAATGEESLLSEGLRESLSFYISLNDEAVSLDDA
modifications: tyrosine phosphorylated
notes: tyrosine phosphorylated SLAP2 expressed in TKB1 cells
B1: the “CBL TKBD co-purification” value with CBL TKBD (conditions where SLAP2 was tyrosine phosphorylated (TKB1), low salt) was “co-purified”. In addition, the “CBL ubiquitination activity (anti-Ub immunoblot)” value in experiment [1] is on record as “stimulated CBL ubiquitination activity; also recorded: promote CBL ubiquitination activity to a greater extent than the addition of SLAP2”.

B2: Trx-His(6)-Δlinker-hSLAP2 (human SLAP2 29-261) (other)
chain: EAERSKATAVALGSFPAGGPAELSLRLGEPLTIVSEDGDWWTVLSEVSGREYNIPSVHVAKVSHGWLYEGLSREKAEELLLLPGNPGGAFLIRESQTRRGSYSLSVRLSRPASWDRIRHYRIHCLDNGWLYISPRLTFPSLQALVDHYSELADDICCLLKEPCVLQRAGPLPGKDIPLPVTVQRTPLNWKELDSSLLFSEAATGEESLLSEGLRESLSFYISLNDEAVSLDDA
notes: also called Trx-His-SLAP2; SLAP2 WT; not shown: N-terminal thioredoxin (Trx)-His(6)-TEV-site tag and linker of the modified pET32a (Δlinker version)
For the molecule B2, the “CBL TKBD co-purification” value in the experiment with CBL TKBD (high salt conditions (0.5 M NaCl)) is listed as “co-purified”. Moreover, in experiment [1], the “CBL ubiquitination activity (anti-Ub immunoblot)” value is recorded as “stimulated CBL ubiquitination activity”.

Values taken from patent US20230212239A1, “INHIBITORS OF CBL AUTOINHIBITION AND RELATED METHODS” (THE HOSPITAL FOR SICK CHILDREN, priority 2020, published 2023).
